The labels stand for the following.
B1: KRT34 (parent)
chain: PTVDLNQVLNETRSQYEALVETNR
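Also: lentivirally expressed fusions sorted by FACS into six bins by GFP to DsRed ratio, PSI derived from sequencing read proportions per bin multiplied by bin number.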

The variants in the series derive from B1. Nature of the series: protein stability index of a GFP-peptide fusion (GPS, HEK-293T) (PSI 1-6); higher = more stable. As to conditions: c terminus: a fixed tail appended.
With PTVDLNQVLNETRSQYEALAETNR [V20A], the protein stability index is 2.68. For PTVDLNQVLNETRSQYEALHETNR [V20H] the value was 4.77; for PTVDLNQVLNETRSQYEALPETNR [V20P], 4.91; for PTVDLNQVLNETRSQYEALDETNR [V20D], 4.71. As for PTVDLNQVLNETRSQYEALSETNR [V20S], the figure is 3.98. As for PTVDLNQVLNETRSQYEALRETNR [V20R], the figure is 4.9; as for PTVDLNQVLNETRSQYEALTETNR [V20T], 4.25.

For the variant PTVDLNQVLNETRSQYEALKETNR [V20K], the protein stability index was 4.86.

Turning to PTVDLNQVLNETRSQYEALYETNR [V20Y], the protein stability index is 4.09. For PTVDLNQVLNETRSQYEALLETNR [V20L] the value was 4.04; for PTVDLNQVLNETRSQYEALGETNR [V20G], 4.44. As for PTVDLNQVLNETRSQYEALCETNR [V20C], the figure is 3.68; as for PTVDLNQVLNETRSQYEALIETNR [V20I], 4; as for PTVDLNQVLNETRSQYEALEETNR [V20E], 3.52. For PTVDLNQVLNETRSQYEALNETNR [V20N] the value was 4.42. PTVDLNQVLNETRSQYEALWETNR [V20W]: the protein stability index is 3.83. As for PTVDLNQVLNETRSQYEALMETNR [V20M], the figure is 3.58.

Regarding PTVDLNQVLNETRSQYEALQETNR [V20Q], the protein stability index is 4.5. As for PTVDLNQVLNETRSQYEALFETNR [V20F], the figure is 3.64. As for PTVDLNQVLNETRSQYEALVEFNR [T22F], the figure is 3.78; as for PTVDLNQVLNETRSQYEALVEINR [T22I], 1.68; as for PTVDLNQVLNETRSQYEALVEANR [T22A], 4.01. As for PTVDLNQVLNETRSQYEALVEHNR [T22H], the figure is 3.99; as for PTVDLNQVLNETRSQYEALVESNR [T22S], 4.36; as for PTVDLNQVLNETRSQYEALVEPNR [T22P], 4.28.

For the variant PTVDLNQVLNETRSQYEALVEDNR [T22D], the protein stability index turned out to be 4.58. For PTVDLNQVLNETRSQYEALVEKNR [T22K] the value was 3.66. PTVDLNQVLNETRSQYEALVEMNR [T22M]: the protein stability index is 3.19. For PTVDLNQVLNETRSQYEALVEENR [T22E] the value was 4.11. As to PTVDLNQVLNETRSQYEALVELNR [T22L], the protein stability index came to 2.54. For the variant PTVDLNQVLNETRSQYEALVEGNR [T22G], the protein stability index amounted to 4.41.

PTVDLNQVLNETRSQYEALVECNR [T22C]: the protein stability index stood at 3.62.

As for PTVDLNQVLNETRSQYEALVERNR [T22R], the protein stability index was found to be 4.46.

As to PTVDLNQVLNETRSQYEALVENNR [T22N], the protein stability index was determined as 4.39. On to PTVDLNQVLNETREQYEALVETNR [S14E], for which the protein stability index is 2.23. For PTVDLNQVLNETRIQYEALVETNR [S14I] the value was 2.44; for PTVDLNQVLNETRVQYEALVETNR [S14V], 2.82. For PTVDLNQVLNETRCQYEALVETNR [S14C] the value was 2.25. PTVDLNQVLNETRGQYEALVETNR [S14G]: the protein stability index stood at 3.56. For PTVDLNQVLNETRRQYEALVETNR [S14R] the value was 2.15; for PTVDLNQVLNETRFQYEALVETNR [S14F], 3.3; for PTVDLNQVLNETRTQYEALVETNR [S14T], 2.96. For PTVDLNQVLNETRLQYEALVETNR [S14L] the value was 2.12; for PTVDLNQVLNETRPQYEALVETNR [S14P], 4.1.

On to PTVDLNQVLNETRDQYEALVETNR [S14D], for which the protein stability index amounted to 2.87.

Regarding PTVDLNQVLNETRYQYEALVETNR [S14Y], the protein stability index was 3.33.

On to PTVDLNQVLNETRHQYEALVETNR [S14H], for which the protein stability index stood at 3.32. For PTVDLNQVLNETRMQYEALVETNR [S14M] the value was 1.65; for PTVDLNQVLNETRAQYEALVETNR [S14A], 2.09; for PTVDLNQVLNETRQQYEALVETNR [S14Q], 2.34. Consider PTVDLNQVLNETRWQYEALVETNR [S14W], for which the protein stability index was 2.74. As for PTVDLNQVLNETRKQYEALVETNR [S14K], the figure is 2.47. As for PTVDLNQVLNETRSQYDALVETNR [E17D], the figure is 4.67; as for PTVDLNQVLNETRSQYTALVETNR [E17T], 4.23.

In the case of PTVDLNQVLNETRSQYKALVETNR [E17K], the protein stability index stood at 4.12. For PTVDLNQVLNETRSQYFALVETNR [E17F] the value was 3.08; for PTVDLNQVLNETRSQYVALVETNR [E17V], 3.7; for PTVDLNQVLNETRSQYGALVETNR [E17G], 4.02. For PTVDLNQVLNETRSQYWALVETNR [E17W] the value was 3.35. Regarding PTVDLNQVLNETRSQYRALVETNR [E17R], the protein stability index stood at 3.83. As for PTVDLNQVLNETRSQYPALVETNR [E17P], the figure is 3.62; as for PTVDLNQVLNETRSQYSALVETNR [E17S], 3.85; as for PTVDLNQVLNETRSQYCALVETNR [E17C], 2.93. For PTVDLNQVLNETRSQYHALVETNR [E17H] the value was 3.93; for PTVDLNQVLNETRSQYIALVETNR [E17I], 2.71; for PTVDLNQVLNETRSQYQALVETNR [E17Q], 3.88. In the case of PTVDLNQVLNETRSQYNALVETNR [E17N], the protein stability index turned out to be 4.05.

For PTVDLNQVLNETRSQYLALVETNR [E17L], the protein stability index worked out at 3.85.

Turning to PTVDLNQVLNETRSQYYALVETNR [E17Y], the protein stability index came out at 3.22. As for PTVDLNQVLNETRSQYMALVETNR [E17M], the figure is 3.68; as for PTVDLNQVLNETRSQYAALVETNR [E17A], 3.77; as for PTVDLNQVLNETRSQVEALVETNR [Y16V], 4.9. As for PTVDLNQVLNETRSQFEALVETNR [Y16F], the figure is 3.65; as for PTVDLNQVLNETRSQREALVETNR [Y16R], 5.42; as for PTVDLNQVLNETRSQLEALVETNR [Y16L], 4.19. For PTVDLNQVLNETRSQMEALVETNR [Y16M] the value was 4.76; for PTVDLNQVLNETRSQSEALVETNR [Y16S], 4.98; for PTVDLNQVLNETRSQIEALVETNR [Y16I], 4.23.

On to PTVDLNQVLNETRSQQEALVETNR [Y16Q], for which the protein stability index came out at 5.57.

Consider PTVDLNQVLNETRSQWEALVETNR [Y16W], for which the protein stability index stood at 3.63. For PTVDLNQVLNETRSQDEALVETNR [Y16D] the value was 5.26; for PTVDLNQVLNETRSQTEALVETNR [Y16T], 4.58. For PTVDLNQVLNETRSQEEALVETNR [Y16E] the value was 5.44; for PTVDLNQVLNETRSQPEALVETNR [Y16P], 4.8. For PTVDLNQVLNETRSQGEALVETNR [Y16G] the value was 4.89.

Consider PTVDLNQVLNETRSQHEALVETNR [Y16H], for which the protein stability index stood at 5.25. For PTVDLNQVLNETRSQCEALVETNR [Y16C] the value was 4.44; for PTVDLNQVLNETRSQAEALVETNR [Y16A], 5.1. For PTVDLNQVLNETRSQNEALVETNR [Y16N] the value was 4.99. As for PTVDLNQVLNETRSQKEALVETNR [Y16K], the figure is 4.57; as for PTVDLNQVLNETRSQYEALVKTNR [E21K], 4.3; as for PTVDLNQVLNETRSQYEALVPTNR [E21P], 4.19. In the case of PTVDLNQVLNETRSQYEALVYTNR [E21Y], the protein stability index worked out at 3.62. As for PTVDLNQVLNETRSQYEALVMTNR [E21M], the figure is 3.92.

Values taken from the supplement of paper PMC10567573.
